Data from patent publication US20200079833A1 (AstraZeneca / MedImmune, published 2020).
Starred links: 1 amine or outer side, 2 acyl side, 3 side chain; linkers in the order of their positions; H or OH if unused. Non-standard residues stand in square brackets, D forms with d. Groups on a side chain read outwards from the residue. Primed or numbered codes have the meaning given here. No end group written: not given here. *: point of attachment. Dodecylbenzoate = dodecylbenzoyl lipid group; γGlu = O=C(O)[C@H](CCC(=O)[*:2])N[*:1]; Stearoyl = CCCCCCCCCCCCCCCCCC(=O)*; αMeF = C[C@](N)(Cc1ccccc1)C(=O)O; αMeK = C[C@](N)(CCCCN)C(=O)O; αMeS = C[C@](N)(CO)C(=O)O; PEG2′ = not defined here; Aib = CC(C)(N)C(=O)O; Ahx = NCCCCCC(=O)O

Assays:
Assay in all cases: cell-based or functional assay
glucagon receptor (GCGR) = glucagon receptor (GCGR) (human, UniProt P47871 26-477)
glucagon receptor (GCGR), sequence (P47871 26-477): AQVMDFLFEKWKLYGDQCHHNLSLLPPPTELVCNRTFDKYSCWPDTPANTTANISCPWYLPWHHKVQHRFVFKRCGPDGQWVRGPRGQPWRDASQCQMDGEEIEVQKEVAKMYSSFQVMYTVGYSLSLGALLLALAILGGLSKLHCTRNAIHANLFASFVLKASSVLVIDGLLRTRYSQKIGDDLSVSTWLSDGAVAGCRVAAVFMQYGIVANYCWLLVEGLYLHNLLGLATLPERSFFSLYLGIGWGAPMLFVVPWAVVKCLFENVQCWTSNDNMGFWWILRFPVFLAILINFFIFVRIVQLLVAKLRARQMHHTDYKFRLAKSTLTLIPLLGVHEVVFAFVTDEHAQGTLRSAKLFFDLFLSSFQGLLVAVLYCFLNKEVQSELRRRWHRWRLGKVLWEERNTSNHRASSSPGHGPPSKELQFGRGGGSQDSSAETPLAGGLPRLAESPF

[1] = molecular target: T1, glucose-dependent insulinotropic peptide (gastric inhibitory polypeptide) receptor (GIPR) (human, UniProt P48546 22-466)
T1 sequence (looked up): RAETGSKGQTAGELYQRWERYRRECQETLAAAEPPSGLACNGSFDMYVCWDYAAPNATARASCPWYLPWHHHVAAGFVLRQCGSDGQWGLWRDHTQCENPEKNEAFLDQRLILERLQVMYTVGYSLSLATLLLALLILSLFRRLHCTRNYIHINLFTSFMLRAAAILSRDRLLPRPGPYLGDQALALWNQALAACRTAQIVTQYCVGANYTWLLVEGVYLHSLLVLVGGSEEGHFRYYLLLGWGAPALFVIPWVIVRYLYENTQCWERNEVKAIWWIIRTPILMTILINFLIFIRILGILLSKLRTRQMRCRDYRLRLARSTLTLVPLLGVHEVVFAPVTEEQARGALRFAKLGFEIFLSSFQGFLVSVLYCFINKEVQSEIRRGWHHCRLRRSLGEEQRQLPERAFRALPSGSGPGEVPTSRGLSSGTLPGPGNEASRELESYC

GLP-1 receptor (GLP-1R) = GLP-1 receptor (GLP-1R) (human, UniProt P43220 24-463)

| Binder | Primary assay EC50 (cAMP), Gluc-R, first run (glucagon receptor (GCGR)) [nM] | Primary assay EC50 (cAMP), Gluc-R, second run (glucagon receptor (GCGR)) [nM] | Primary assay EC50 (cAMP), GIP-R, first run [1] [nM] | Primary assay EC50 (cAMP), GIP-R, second run [1] [nM] | Primary assay EC50 (cAMP), GLP-1R n1 (GLP-1 receptor (GLP-1R)) [nM] | Primary assay EC50 (cAMP), GLP-1R n2 (GLP-1 receptor (GLP-1R)) [nM] | Primary assay EC50 (cAMP), Mean pM GLP-1R (GLP-1 receptor (GLP-1R)) [pM] |
| --- | --- | --- | --- | --- | --- | --- | --- |
| H[Aib]EGS[αMeF]TSDV[αMeS]S[αMeF]LEGEAA[αMeK]E[αMeF]IA[αMeF]VVK([PEG2′-PEG2′-PEG2′-Dodecylbenzoate])GG-NH2 [SEQ ID NO 181] | 25 | 25 | 25 | 25 | 0.0021 | 0.00083 | 1.5 |
| H[Aib]EGS[αMeF]TSDV[αMeS]S[αMeF]LEGEAA[αMeK]E[αMeF]IA[αMeF]VVK([PEG2′-PEG2′-Dodecylbenzoate])GG-NH2 [SEQ ID NO 180] | 26 | 26 | 26 | 26 | 0.0032 | 0.0011 | 2.2 |
| H[Aib]EGS[αMeF]TSDV[αMeS]S[αMeF]LEGEAA[αMeK]E[αMeF]IA[αMeF]VVK([Ahx-Ahx-Stearoyl])GG-NH2 (N-terminus assumed; SMILES CCCCCCCCCCCCCCCCCC(=O)NCCCCCC(=O)NCCCCCC(=O)NCCCC[C@H](NC(=O)[C@@H](NC(=O)[C@@H](NC(=O)[C@](C)(Cc1ccccc1)NC(=O)[C@H](C)NC(=O)[C@@H](NC(=O)[C@](C)(Cc1ccccc1)NC(=O)[C@H](CCC(=O)O)NC(=O)[C@](C)(CCCCN)NC(=O)[C@H](C)NC(=O)[C@H](C)NC(=O)[C@H](CCC(=O)O)NC(=O)CNC(=O)[C@H](CCC(=O)O)NC(=O)[C@H](CC(C)C)NC(=O)[C@](C)(Cc1ccccc1)NC(=O)[C@H](CO)NC(=O)[C@](C)(CO)NC(=O)[C@@H](NC(=O)[C@H](CC(=O)O)NC(=O)[C@H](CO)NC(=O)[C@@H](NC(=O)[C@](C)(Cc1ccccc1)NC(=O)[C@H](CO)NC(=O)CNC(=O)[C@H](CCC(=O)O)NC(=O)C(C)(C)NC(=O)[C@@H](N)Cc1c[nH]cn1)[C@@H](C)O)C(C)C)[C@@H](C)CC)C(C)C)C(C)C)C(=O)NCC(=O)NCC(N)=O) [SEQ ID NO 186] | 27 | 27 | 27 | 27 | 0.13 | 0.05 | 87.5 |
| H[Aib]EGS[αMeF]TSDV[αMeS]S[αMeF]LEGEAA[αMeK]E[αMeF]IA[αMeF]VVK([Ahx-Stearoyl])GG-NH2 (N-terminus assumed; SMILES CCCCCCCCCCCCCCCCCC(=O)NCCCCCC(=O)NCCCC[C@H](NC(=O)[C@@H](NC(=O)[C@@H](NC(=O)[C@](C)(Cc1ccccc1)NC(=O)[C@H](C)NC(=O)[C@@H](NC(=O)[C@](C)(Cc1ccccc1)NC(=O)[C@H](CCC(=O)O)NC(=O)[C@](C)(CCCCN)NC(=O)[C@H](C)NC(=O)[C@H](C)NC(=O)[C@H](CCC(=O)O)NC(=O)CNC(=O)[C@H](CCC(=O)O)NC(=O)[C@H](CC(C)C)NC(=O)[C@](C)(Cc1ccccc1)NC(=O)[C@H](CO)NC(=O)[C@](C)(CO)NC(=O)[C@@H](NC(=O)[C@H](CC(=O)O)NC(=O)[C@H](CO)NC(=O)[C@@H](NC(=O)[C@](C)(Cc1ccccc1)NC(=O)[C@H](CO)NC(=O)CNC(=O)[C@H](CCC(=O)O)NC(=O)C(C)(C)NC(=O)[C@@H](N)Cc1c[nH]cn1)[C@@H](C)O)C(C)C)[C@@H](C)CC)C(C)C)C(C)C)C(=O)NCC(=O)NCC(N)=O) [SEQ ID NO 185] | 28 | 28 | 28 | 28 | 0.38 | 0.12 | 251 |
| H[Aib]EGS[αMeF]TSDV[αMeS]S[αMeF]LEGEAA[αMeK]E[αMeF]IA[αMeF]VVK([γGlu-Stearoyl])GG-NH2 (N-terminus assumed; SMILES CCCCCCCCCCCCCCCCCC(=O)N[C@@H](CCC(=O)NCCCC[C@H](NC(=O)[C@@H](NC(=O)[C@@H](NC(=O)[C@](C)(Cc1ccccc1)NC(=O)[C@H](C)NC(=O)[C@@H](NC(=O)[C@](C)(Cc1ccccc1)NC(=O)[C@H](CCC(=O)O)NC(=O)[C@](C)(CCCCN)NC(=O)[C@H](C)NC(=O)[C@H](C)NC(=O)[C@H](CCC(=O)O)NC(=O)CNC(=O)[C@H](CCC(=O)O)NC(=O)[C@H](CC(C)C)NC(=O)[C@](C)(Cc1ccccc1)NC(=O)[C@H](CO)NC(=O)[C@](C)(CO)NC(=O)[C@@H](NC(=O)[C@H](CC(=O)O)NC(=O)[C@H](CO)NC(=O)[C@@H](NC(=O)[C@](C)(Cc1ccccc1)NC(=O)[C@H](CO)NC(=O)CNC(=O)[C@H](CCC(=O)O)NC(=O)C(C)(C)NC(=O)[C@@H](N)Cc1c[nH]cn1)[C@@H](C)O)C(C)C)[C@@H](C)CC)C(C)C)C(C)C)C(=O)NCC(=O)NCC(N)=O)C(=O)O) [SEQ ID NO 182] | 28 | 28 | 28 | 28 | 0.13 | 0.052 | 89.9 |

Second part, the binder after the results:

| Primary assay EC50 (cAMP), Gluc-R, first run (glucagon receptor (GCGR)) [nM] | Primary assay EC50 (cAMP), Gluc-R, second run (glucagon receptor (GCGR)) [nM] | Primary assay EC50 (cAMP), GIP-R, first run [1] [nM] | Primary assay EC50 (cAMP), GIP-R, second run [1] [nM] | Primary assay EC50 (cAMP), GLP-1R n1 (GLP-1 receptor (GLP-1R)) [nM] | Primary assay EC50 (cAMP), GLP-1R n2 (GLP-1 receptor (GLP-1R)) [nM] | Primary assay EC50 (cAMP), Mean pM GLP-1R (GLP-1 receptor (GLP-1R)) [pM] | Binder |
| --- | --- | --- | --- | --- | --- | --- | --- |
| 27 | 27 | 27 | 27 | 0.064 | 0.018 | 40.9 | H[Aib]EGS[αMeF]TSDV[αMeS]S[αMeF]LEGEAA[αMeK]E[αMeF]IA[αMeF]VVK([γGlu-γGlu-Stearoyl])GG-NH2 (N-terminus assumed; SMILES CCCCCCCCCCCCCCCCCC(=O)N[C@@H](CCC(=O)N[C@@H](CCC(=O)NCCCC[C@H](NC(=O)[C@@H](NC(=O)[C@@H](NC(=O)[C@](C)(Cc1ccccc1)NC(=O)[C@H](C)NC(=O)[C@@H](NC(=O)[C@](C)(Cc1ccccc1)NC(=O)[C@H](CCC(=O)O)NC(=O)[C@](C)(CCCCN)NC(=O)[C@H](C)NC(=O)[C@H](C)NC(=O)[C@H](CCC(=O)O)NC(=O)CNC(=O)[C@H](CCC(=O)O)NC(=O)[C@H](CC(C)C)NC(=O)[C@](C)(Cc1ccccc1)NC(=O)[C@H](CO)NC(=O)[C@](C)(CO)NC(=O)[C@@H](NC(=O)[C@H](CC(=O)O)NC(=O)[C@H](CO)NC(=O)[C@@H](NC(=O)[C@](C)(Cc1ccccc1)NC(=O)[C@H](CO)NC(=O)CNC(=O)[C@H](CCC(=O)O)NC(=O)C(C)(C)NC(=O)[C@@H](N)Cc1c[nH]cn1)[C@@H](C)O)C(C)C)[C@@H](C)CC)C(C)C)C(C)C)C(=O)NCC(=O)NCC(N)=O)C(=O)O)C(=O)O) [SEQ ID NO 183] |
| 26 | 26 | 26 | 26 | 0.047 | 0.012 | 29.5 | H[Aib]EGS[αMeF]TSDV[αMeS]S[αMeF]LEGEAA[αMeK]E[αMeF]IA[αMeF]VVK([γGlu-γGlu-γGlu-Stearoyl])GG-NH2 (N-terminus assumed; SMILES CCCCCCCCCCCCCCCCCC(=O)N[C@@H](CCC(=O)N[C@@H](CCC(=O)N[C@@H](CCC(=O)NCCCC[C@H](NC(=O)[C@@H](NC(=O)[C@@H](NC(=O)[C@](C)(Cc1ccccc1)NC(=O)[C@H](C)NC(=O)[C@@H](NC(=O)[C@](C)(Cc1ccccc1)NC(=O)[C@H](CCC(=O)O)NC(=O)[C@](C)(CCCCN)NC(=O)[C@H](C)NC(=O)[C@H](C)NC(=O)[C@H](CCC(=O)O)NC(=O)CNC(=O)[C@H](CCC(=O)O)NC(=O)[C@H](CC(C)C)NC(=O)[C@](C)(Cc1ccccc1)NC(=O)[C@H](CO)NC(=O)[C@](C)(CO)NC(=O)[C@@H](NC(=O)[C@H](CC(=O)O)NC(=O)[C@H](CO)NC(=O)[C@@H](NC(=O)[C@](C)(Cc1ccccc1)NC(=O)[C@H](CO)NC(=O)CNC(=O)[C@H](CCC(=O)O)NC(=O)C(C)(C)NC(=O)[C@@H](N)Cc1c[nH]cn1)[C@@H](C)O)C(C)C)[C@@H](C)CC)C(C)C)C(C)C)C(=O)NCC(=O)NCC(N)=O)C(=O)O)C(=O)O)C(=O)O) [SEQ ID NO 184] |
